The nanobody polyreactivity screen of Harvey et al. (2022)

Assay: yeast display, Sf9 membrane polyspecificity reagent, FACS + sequencing; frameworks hold sequencing errors
In short: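 Galactose-induced (36–48 hours) yeast carrying a synthetic nanobody display library were exposed to 10% biotinylated, detergent-solubilized Sf9 membrane reagent at 4 °C for 1 hour. FACS followed streptavidin microbead enrichment, using low and high (top ~1%) gates for expression (anti-HA) and reagent binding (streptavidin). Colony PCR, MiSeq 2 × 250 sequencing and CDR-length filtering followed. Labels for polyreactivity reflect the gate of origin.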

| Sequence | polyreactivity (PSR sort gate) |
| --- | --- |
| QVQLVESGGGLVQAGGSLRLSSPASGFTFYYKGMGWYRQAPGKERELVATITSGGSTYYADSVKGRFTISSDNAKNTVYLQMNSLKPEDTAVYYCNRRISWRYVPTYDYWGQGTQVTVSS | high polyreactivity |
| QVQLVESGGGLVQAGGSLRLSSPASGRIFITNAMGWYRQAPGKERELVASITVSGDSTYYADSVKGRFTISRDNAKNPVYLQMNSLKPEDTAVYYCAADYYALDKVLGNNYWGQGTQVTVSS | low polyreactivity |
| QVQLVESGGGLVQAGGSLRLSSTASGFTFKLYAMGWERHATGKERELVAAISSYGGRTYYADSVKGRFTISRDNAKNTVYLQMKSLKPEDTAVYYCKAVRTVNDYHYDYWGQGTQVTVSS | high polyreactivity |
| QVQLVESGGGLVQAGGSLRLSWAASGFTFDSNAMGWSRPAPGKEREVVAAISWSGASTYADSVKGRFTISRDNAKNTVYLQMNSLKPEDTAVYYCAADDEDVLFDYWGQGTQVTVSS | low polyreactivity |
| QVQLVESGGGLVQAGGSLRLSWAASGFTFGVNTMGWYRQAPGKERELVADISSGGRTNYADSVKGRFTISRDNAKNTVYLQMNRLKPEDTAVYYCAADNYSGTETDLTTLLDYWGQGTQVSVSS | low polyreactivity |
| QVQLVESGGGLVQAGGSLRLSWAASGFTLTRNAMGWYTQAPGKERELVAAISWSGGTTYYADSVKGRFTISRDNAKNPVYLQMNSLKRDDTAVYYCNTASWRAQYYYWGQGTRVTVSS | high polyreactivity |
| QVQLVESGGGLVQAGGSLRLSWAASGRIFGRYAMGWYRQAPGKERELVAAISYSGGSTYYADSVKGRFTISRDNAKNTVYLQMNSLKPEDTAVFYCNRYPTYGRTSYVTYYYWGQGTQVTVSS | high polyreactivity |
| QVQLVESGGGLVQAGGSLRLSWAASGRIIHYNVMGWYRQPPGKERDLVAAIRGGGRSTYYADSVKGRFTISRDNAKNTVYLQMNSLKPEDTAVYYCAKSLSQNTYYHQGYYDDNYWGQGTQVTVSS | low polyreactivity |
| QVQLVESGGGLVQAGGSLRLSWAASGSIFQYVYAMGWYRQAPGKERELVATITWSGGSTYYSDSVKGRFTISRDNAKNTVYLQMNSLKPEDTAVYYCAAESIYYPVAQYYYSFEYWGQGTQVTVSS | low polyreactivity |
| QVQLVESGGGLVQAGGSLRLSWAASGSTFDGYAMGWYRQAPGKERELVAAITRSGGSTYYADSVKGRFTISRDNAKITVYRQINSLKPEDTEVYYSNKYGYKGCVGYDYWGKGTQVTVSS | high polyreactivity |
| QVQLVESGGGLVQAGGSLRLSWAASGSTFYAYAMGCYRQSPGNERELVATISWSGGSTYADSVKGRFTISRDNAKYTVYLQMNSMTPEDTAVYYCNGSGAFYPTQVHPGYTLWSYDDWGQGTQVTVSS | low polyreactivity |
| QVQLVESGGGLVQAGGSLRLSWAAYGRIVKYAMGWYREPPGKERELVAAISGSGGTTYYADSVKGRLTISRDNAKNTVEFHMKSLKPEDTAVYYCAASRPRPPSSRRMVYWGQGSQVTVSS | high polyreactivity |
| QVQLVESGGGLVQAGGSLRLSYAASGRTFYRYAMGWYRQAPGKERELVAVITSGSRTKYADSVKGRFTISRDNAKNTVYLQMNSLKPEDTAFYYCAARGLALEGKSSGEYWGQGTQVTVSS | high polyreactivity |
| QVQLVESGGGLVQAGGSLRLTCAASGFIFCSYAMRWYRQAPGKERELVAAISFRGGSTFYADSVKGRFTISRDNAKNTVYLQMNSLKPEDTAVYYCNKAAYSIHSGLSYYHWGQGTQVTVSS | low polyreactivity |
| QVQLVESGGGLVQAGGSLRLTCAASGFIFEEYAKGWYRPAPGKERELVAAISRRGGSTYYADSVKGRFTISRDNATNTVYLQMNSLKPEDTAVDYCATDRRYNYWGQGTQVTVSS | high polyreactivity |
| QVQLVESGGGLVQAGGSLRLTCAASGFIFNYNTMGWYRQAPGKERELVAGINWSGTRTYYADSVKGRFTISRDNAKNTDYLQMNSLKPEDTAVYYCNAYTQQYRSYGYWGQGTQVTVSS | high polyreactivity |

| Sequence | polyreactivity (PSR sort gate) |
| --- | --- |
| QVQLVESGGGLVQAGGSLRLTCAASGFIFPWNAMAWFRQAPRKERELVAAISFSGGSTYYADSVKGRFTISRDNAKNTVYLQMNSLKPEDTAVYYCAKRTWDLRRTRHYYWGQGTQVTVSS | low polyreactivity |
| QVQLVESGGGLVQAGGSLRLTCAASGFIFSLNAMGWYRQAPGKERELVAAISRCGVRTYYADSVKGRFSISRDNAKNTVYLQMNSLKPEDTAVYYCATAGPYYYYSGPQYDYWGQGTHVTVSS | high polyreactivity |
| QVQLVESGGGLVQAGGSLRLTCAASGFIFTYNAMGWYRQAPGKERELVAAISWSGSRTNYADTVKGRFTISRDNAKHTVYLQMNSLKPEDTAVFYCAAKYKYRTYNYWGQGTQVTVSS | high polyreactivity |
| QVQLVESGGGLVQAGGSLRLTCAASGFIFTYPNAKGWNIQAPGKERELVAAISWRGGGTYYADSVKGRFTISRDNAKNTVYLQMNSLKPEDTAVYYCADYVPAPRRTYNYWGQGTQVTVSS | high polyreactivity |
| QVQLVESGGGLVQAGGSLRLTCAASGFIFVTDAMGWYRQAPGKERELVAAITNSGGTTYYADSVKGRFTISRDNAKNTVYLQMNSLKPEDPAVYYCNKQWYTATYRESYYWGQGTQVTVSS | low polyreactivity |
| QVQLVESGGGLVQAGGSLRLTCAASGFTFAGYAMGWYRQGPGKERELVAVITSSDSTYYADSVKGRFTISRDNAKNTVYLQMNSLKPEDTAVYYCNAADERSQGWVGYDHWGQCTQVTVSS | low polyreactivity |
| QVQLVESGGGLVQAGGSLRLTCAASGFTFDTYAMGWYRQAPGKEREFVATISRNSGSTYYADSVKGRFTIARDNAKNTVYLQMNSLKPEDTAVYYCNRRRYGRKSDRMNYWGQGTQVTVSS | high polyreactivity |
| QVQLVESGGGLVQAGGSLRLTCAASGFTFRKNVMGWYRQAPGKERELVAFISSSGGSTYYADSVKGRFTISRDNEKNTGYIPMNSLKPEETAVYYCNAGRYGSNLEYWGQATQVTVSS | low polyreactivity |
| QVQLVESGGGLVQAGGSLRLTCAASGFTFYGYAMGRYRQAPGKERELVAAISSSGTSTYSGDSVKGRFTISRDNAKNTVYLQMNSLKPEDTAVYYCAKDFYRRFYSWGQGTQVTLSS | high polyreactivity |
| QVQLVESGGGLVQAGGSLRLTCAASGFTINFYAMGGYRQAPGKERELVAAITASGGGSTYYADSVKGRFTISRDNAKNTVYLQMNSLKPEDTAVYYCNADYTGSFYTYDYWGQGTQVTVSS | low polyreactivity |
| QVQLVESGGGLVQAGGSLRLTCAASGFTVHNKVMGWYRQAPGKERELVATISKSGGSTYYADSVKGRFTISRDNAKNTVYLEMNSLKPVDTAVYYCARRYGDYGRYGYWGQGTQVTVSS | high polyreactivity |
| QVQLVESGGGLVQAGGSLRLTCAASGFTYTINGMGWYRQAPGKERELVAAINWRGGSTYYADSVKGRFTISRDNAKNTVYLQMNSLKPEDTAVYYCYAVAYIYSYAYPPYWGREHLNYWGQGTQVTVSS | low polyreactivity |
| QVQLVESGGGLVQAGGSLRLTCAASGGIFTDYTMGWYRQAPGKERELVSAITWTGGSTYYADSVKGRFTISRDNAKNTVYLQMNSLKPEDTAVYYCYVVKYVYIYSYWEYYFWGQGTQVTVSS | low polyreactivity |
| QVQLVESGGGLVQAGGSLRLTCAASGGTFGSYAMGWYRPAPGKERELVAVISSGGSTYYADSVKGRFTISRDNAKNTVYLQMNSLKPEDTAVYYCARRTRTTRGKNGYWGQGTKVTVSS | high polyreactivity |
| QVQLVESGGGLVQAGGSLRLTCAASGGTFYANAMGWYRQAPGTERELVAAITSGGSTNYADSVKGRFTISRDNAKNTVYLQMNSLKPEDTAVYYCNAAAQRRYWHSYFRRYDYWGQGTQVTVSS | low polyreactivity |
